Laboratory results reported in the Immune Epitope Database (IEDB).

Key:
HLA-B*07:02 = assay: IEDB peptide-MHC binding, purified MHC/competitive/radioactivity; filed as Kd, often an IC50 or EC50 that approximates it; ≥ and ≤ were set here for values at or beyond the usual limits of such assays
HLA-B*35:01 = assay: as above
HLA-B*51:01 = assay: as above
HLA-B*53:01 = assay: as above
HLA-B*54:01 = assay: as above
HLA-B*46:01 = assay: IEDB peptide-MHC binding, purified MHC/competitive/fluorescence; filed as Kd, often an IC50 or EC50 that approximates it; ≥ and ≤ were set here for values at or beyond the usual limits of such assays; conditions: source organism: Shigella flexneri 5 str. 8401
HLA-B*18:01 = assay: IEDB peptide-MHC binding, purified MHC/direct/fluorescence; filed as Kd, often an IC50 or EC50 that approximates it; ≥ and ≤ were set here for values at or beyond the usual limits of such assays
HLA-B*40:01 = assay: as above; conditions: source organism: West Nile virus
HLA-B*15:42 = assay: IEDB peptide-MHC binding, purified MHC/competitive/fluorescence; filed as Kd, often an IC50 or EC50 that approximates it; ≥ and ≤ were set here for values at or beyond the usual limits of such assays
HLA-B*45:06 = assay: as above
HLA-B*83:01 = assay: as above
HLA-B*08:01 = assay: IEDB peptide-MHC binding, purified MHC/competitive/radioactivity; filed as Kd, often an IC50 or EC50 that approximates it; ≥ and ≤ were set here for values at or beyond the usual limits of such assays; conditions: source organism: Hepatitis C virus (isolate H)
HLA-B*44:02 = assay: IEDB peptide-MHC binding, purified MHC/direct/fluorescence; filed as Kd, often an IC50 or EC50 that approximates it; ≥ and ≤ were set here for values at or beyond the usual limits of such assays; conditions: source organism: Dengue virus 1 Singapore/S275/1990
[1] = source organism: SARS coronavirus Tor2
[2] = source organism: West Nile virus
[3] = source organism: Mammarenavirus whitewaterense
[4] = source organism: Mycobacterium tuberculosis C
[5] = source organism: Vaccinia virus WR
[6] = source organism: Human herpesvirus 4 strain B95-8
[7] = source organism: Hepatitis C virus (isolate H)
[8] = source organism: Triticum aestivum
[9] = source organism: Mycobacterium tuberculosis H37Rv
[10] = source organism: Mammarenavirus tacaribeense

**Q.** Which results are given for IPKGIMMNV?
**A.** Kd (HLA-B*07:02; [1]): 128 nM; Kd (HLA-B*35:01; [1]): ≥ 20900 nM; Kd (HLA-B*51:01; [1]): 8270 nM; Kd (HLA-B*53:01; [1]): ≥ 23800 nM; Kd (HLA-B*54:01; [1]): 14.7 nM

**Q.** For LAMYHGQTY, which Kd (HLA-B*46:01) is on record?
**A.** ≥ 20 µM

**Q.** What does the source list for MEEPAPAGF?
**A.** Kd (HLA-B*18:01; [2]): 19.8 nM; Kd (HLA-B*40:01): 2570 nM

**Q.** What does the source list for GPFEASWAI?
**A.** Kd (HLA-B*07:02; [3]): 411 nM; Kd (HLA-B*35:01; [3]): 801 nM; Kd (HLA-B*51:01; [3]): 1000 nM; Kd (HLA-B*53:01; [3]): 254 nM; Kd (HLA-B*54:01; [3]): 311 nM

**Q.** What does the source list for SVMAIFYLR?
**A.** Kd (HLA-B*15:42; [4]): ≥ 5 µM; Kd (HLA-B*45:06; [4]): ≥ 5 µM; Kd (HLA-B*83:01; [4]): ≥ 5000 nM

**Q.** Which Kd (HLA-B*07:02; [5]) does the source give for DPEKFNARM here?
**A.** ≥ 66700 nM

**Q.** What about the Kd (HLA-B*35:01; [5]) of the same sequence?
**A.** 948 nM

**Q.** And the Kd (HLA-B*51:01; [5])?
**A.** 17000 nM

**Q.** What about the Kd (HLA-B*53:01; [5]) of the same sequence?
**A.** 1300 nM

**Q.** What about the Kd (HLA-B*54:01; [5]) of the same sequence?
**A.** ≥ 78100 nM

**Q.** What does the source list for TPNNLNKIQL?
**A.** Kd (HLA-B*07:02; [5]): 64.9 nM; Kd (HLA-B*35:01; [5]): 4430 nM; Kd (HLA-B*51:01; [5]): ≥ 69600 nM; Kd (HLA-B*53:01; [5]): 2930 nM; Kd (HLA-B*54:01; [5]): 13500 nM

**Q.** Which results are given for CSDAFYPFY?
**A.** Kd (HLA-B*15:42; [6]): ≥ 5 µM; Kd (HLA-B*45:06; [6]): ≥ 5 µM; Kd (HLA-B*83:01; [6]): ≥ 5000 nM

**Q.** How did the Kd (HLA-B*08:01) turn out when HPALVFDIT was run?
**A.** 974 nM

**Q.** And the Kd (HLA-B*35:01; [7])?
**A.** 5.67 nM

**Q.** And the Kd (HLA-B*51:01; [7])?
**A.** 7090 nM

**Q.** What about the Kd (HLA-B*53:01; [7]) of the same sequence?
**A.** 650 nM

**Q.** What about the Kd (HLA-B*54:01; [7]) of the same sequence?
**A.** 0.285 nM

**Q.** Which Kd (HLA-B*18:01; [2]) does the source give for EERKNFLEL here?
**A.** 48.4 nM

**Q.** What about the Kd (HLA-B*40:01) of the same sequence?
**A.** ≥ 20000 nM

**Q.** For DELPFVAPV, which Kd (HLA-B*18:01; source organism: Burkholderia ambifaria AMMD) is on record?
**A.** 0.6 nM

**Q.** How did the Kd (HLA-B*07:02; [1]) turn out when APVSAMVRM was run?
**A.** 158 nM

**Q.** And the Kd (HLA-B*35:01; [1])?
**A.** 433 nM

**Q.** What about the Kd (HLA-B*51:01; [1]) of the same sequence?
**A.** 1770 nM

**Q.** What about the Kd (HLA-B*53:01; [1]) of the same sequence?
**A.** 749 nM

**Q.** And the Kd (HLA-B*54:01; [1])?
**A.** ≥ 23200 nM

**Q.** For IPCMDVVL, which Kd (HLA-B*07:02; [8]) is on record?
**A.** ≥ 40400 nM

**Q.** And the Kd (HLA-B*35:01; [8])?
**A.** 16200 nM

**Q.** What about the Kd (HLA-B*51:01; [8]) of the same sequence?
**A.** 1300 nM

**Q.** What about the Kd (HLA-B*53:01; [8]) of the same sequence?
**A.** ≥ 41100 nM

**Q.** What about the Kd (HLA-B*54:01; [8]) of the same sequence?
**A.** ≥ 87700 nM

**Q.** What does the source list for SEHTGKEIV?
**A.** Kd (HLA-B*18:01; source organism: Dengue virus 1 Singapore/S275/1990): 3090 nM; Kd (HLA-B*44:02): ≥ 20 µM

**Q.** With SPAAYVLPL as the sequence, how does the Kd (HLA-B*15:42; [9]) read?
**A.** ≥ 5 µM

**Q.** What about the Kd (HLA-B*45:06; [9]) of the same sequence?
**A.** ≥ 5 µM

**Q.** What about the Kd (HLA-B*83:01; [9]) of the same sequence?
**A.** 156 nM

**Q.** What does the source list for MPYNILDRII?
**A.** Kd (HLA-B*07:02; [5]): 265 nM; Kd (HLA-B*35:01; [5]): 1640 nM; Kd (HLA-B*51:01; [5]): 124 nM; Kd (HLA-B*53:01; [5]): 45.5 nM; Kd (HLA-B*54:01; [5]): 8.4 nM

**Q.** Which results are given for VPYCNYTRFW?
**A.** Kd (HLA-B*07:02; [10]): 3530 nM; Kd (HLA-B*35:01; [10]): 3400 nM; Kd (HLA-B*51:01; [10]): 1020 nM; Kd (HLA-B*53:01; [10]): 15.9 nM; Kd (HLA-B*54:01; [10]): ≥ 22500 nM

**Q.** How did the Kd (HLA-B*07:02; [1]) turn out when KPTESACSSL was run?
**A.** 58.4 nM

**Q.** And the Kd (HLA-B*35:01; [1])?
**A.** 16600 nM

**Q.** And the Kd (HLA-B*51:01; [1])?
**A.** 4230 nM

**Q.** What about the Kd (HLA-B*53:01; [1]) of the same sequence?
**A.** 8380 nM

**Q.** What about the Kd (HLA-B*54:01; [1]) of the same sequence?
**A.** ≥ 50400 nM
